From publication PMC10166511, “Fast cross-linking by DOPA2 promotes the capturing of a stereospecific protein complex over nonspecific encounter complexes” (Biophysics Reports, 2022) come the findings set out here.

For orientation: Kd means the equilibrium constant for the complex coming apart.

The target of the test is T1, EIIA^Glc (UniProt P69783 2-169).
T1 construct: EIIA^Glc, functional subunit of Enzyme II of the bacterial glucose phosphotransferase system; Species is stated only for enzyme I (E. coli); source: purified as previously described (Garrett et al. 1999; Xing et al. 2014)
T1 sequence (P69783 2-169): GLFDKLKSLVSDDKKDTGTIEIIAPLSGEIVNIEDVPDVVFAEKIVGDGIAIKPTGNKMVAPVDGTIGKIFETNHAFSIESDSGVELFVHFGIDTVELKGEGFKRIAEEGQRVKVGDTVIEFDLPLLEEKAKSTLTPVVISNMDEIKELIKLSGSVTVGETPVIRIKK
Nature of the test: SPR + ELISA; no accurate KD obtained; format and conditions not told. Particulars: both partners purified.

Where only a bound is given, the exact number is not on record here.

B1: EIIB^Glc (domain or fragment)
chain: EDATEDAKATGTSEMAPALVAAFGGKENITNLDACITRLRVSVADVSKVDQAGLKKLGAAGVVVAGSGVQAIFGTKSDNLKTEMDEYIRN
notes: EIIB^Glc, functional subunit of Enzyme II of the bacterial glucose phosphotransferase system; Species is stated only for enzyme I (E. coli); source: purified as previously described (Garrett et al. 1999; Xing et al. 2014)
Take B1: the equilibrium dissociation constant (Kd) was greater than 10 µM.
